Source: the supplement of paper PMC9732359
± gives the uncertainty stated by the source.

test: protein stability index of a GFP-peptide fusion (yeast GPS) (PSI 1-4); higher = more stable; sorted into four equal gates, so the index is relative within each strain; conditions: doa10∆
Outline: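 Tiled yeast protein peptides of 17 residues were each joined downstream of GFP, on plasmids that also express Cherry. The pooled library was maintained in yeast, and mid-log cultures in leucine-free medium were sorted into four equal gates on the GFP/Cherry ratio. Plasmids from every gate were amplified by PCR and sequenced on Illumina, with barcodes linking reads to strains. The protein stability index of a peptide is its gate-number-weighted read frequency summed over the gates.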

Sequence | protein stability index
YDTQLKVSPEELPLVIT [ARP7] | 2.6 ± 0.047
YEADQRKLFPNWIKPSD [PRP8] | 2.99 ± 0.092
YFKLSITSFDQDVDDAH [POP8] | 1.78 ± 0.05
YFLHLSVFNAELLKLLN [YCS4] | 1.26 ± 0.053
YFLKVTFLKYFGWLLSD [IRR1] | 1.75 ± 0.074
YFSNKTSTGIIRCHRED [POP5] | 2.98 ± 0.17
YFWHKIWRKVPGDVLDK [SNU114] | 1.15 ± 0.095
YGAYNTQIANAGASPMV [PRE4] | 2.16 ± 0.1
YGGSRCANCVKERIVRA [RPL34B] | 3.36 ± 0.21
YGHVFLGITGLATDVTT [PUP3] | 1.93 ± 0.13
YGIPLEFYNEMHRPVHF [PRP8] | 1.85 ± 0.074
YGKPTNQGVNELKYQRS [RPL15A] | 2.9 ± 0.16
YGNDEEVLFYEDNYNPK [RPN4] | 3.11 ± 0.094
YHGISKNDNIKKSVNKL [POP6] | 2.7 ± 0.064
YHQLLSDIESLEALMDI [SRB8] | 2.9 ± 0.13
YIEASGREGIWSKTIKA [RPC34] | 1.78 ± 0.1
YIESKFCPGEIVGKSNV [YMR129W/POM152] | 2.86 ± 0.1
YIKSATLYSVKSKEDMK [SNU114] | 3.22 ± 0.17
YINGKATALANLRKSRG [RPO31] | 3 ± 0.067

Sequence | protein stability index
YINSDSVNPAMLPGSSN [RPO31] | 2.6 ± 0.1
YISNLLYGVTICYNKKT [REC8] | 1.22 ± 0.036
YIYSHVNKVPQNVAGDK [SWP82] | 2.79 ± 0.17
YKRSIVRNYKPLINRLK [SWI1] | 2.4 ± 0.13
YKWTQGINNLSEIWDVS [PRP8] | 3.03 ± 0.1
YLACKVEECPQYIRTLV [SSN8] | 1.25 ± 0.14
YLAHEDNKEKDFELEIS [PRE10] | 2.84 ± 0.17
YLKHNSIAEEIPIAIVL [RET1] | 2.65 ± 0.052
YLSGAIPNQEVLQYSDW [YDL116W/NUP84] | 2.37 ± 0.12
YLTGGQQPTASDNIASL [SMD1] | 3 ± 0.21
YNALFQQNIKFRRDFLL [YJL039C/NUP192] | 2.38 ± 0.096
YNGFIDIFSNLSSDDLL [YCS4] | 3.16 ± 0.044
YNNKVGVAASQGSMSER [SIR2] | 1.79 ± 0.066
YNSVAEAKKFEPTYRLV [RPS24A] | 2.87 ± 0.14
YNTSILEFRWLTSSKSV [SIN4] | 1.79 ± 0.065
YNVENQQYVAAGDLRAL [FAS1] | 2.81 ± 0.11
YPVHEAHKGQIVLIKGI [SNU114] | 1.52 ± 0.095
YQKLFSQFINDHILFTK [SRB8] | 1.94 ± 0.044
YQWNLDGLQQLDKYLYV [RPN1] | 2.92 ± 0.068

Sequence | protein stability index
YSIDEFFLQRKLRSELG [BRR2] | 2.3 ± 0.12
YSKNNPNLLFSMCGFEV [PRP8] | 2.96 ± 0.093
YSKSFEQFKMVSMITDH [POP1] | 2.3 ± 0.12
YSMISLQNCCIIDVGTH [ARP9] | 1.75 ± 0.085
YSSVAGTVSRVNRLLSV [RRP4] | 1.74 ± 0.036
YSTIRQLVYKRGFGKIN [RPL7A] | 2.34 ± 0.064
YSWLLFEASCMEGQKLD [YJR042W/NUP85] | 1.09 ± 0.094
YSYTTIVLSDQTQEFFL [YJL039C/NUP192] | 2.79 ± 0.077
YTETDPAKVAEEGINKF [SRP54] | 3.05 ± 0.1
YTKPYPNFEASFVHGVV [SMC2] | 2.53 ± 0.15
YTPEESAWIWPMDEETK [RPC25] | 2.34 ± 0.068
YVDTATAKRKSRKRKPK [IRR1] | 3.17 ± 0.1
YVGEVIKIVSDKKVLVK [RPT6] | 3.03 ± 0.058
YVNYEISTAKAWGALIT [YML103C/NUP188] | 1.32 ± 0.052
YVRAKFLDYTTDNVSMY [PRP8] | 2.82 ± 0.059
YWQFNGVIALGQFVTLG [RMP1] | 3.23 ± 0.094
YWVPDWDGVIPTPAIIK [RPO21] | 2.34 ± 0.14
YWYEQDSAKEWPQSKNC [RPB3] | 3.4 ± 0.12
